“Also recorded” adds a separate entry of the source.
B1: fibromodulin: human fibromodulin residues 19–376 of UniProt Q06828, ten N-terminal tyrosines mutated to serine, natively glycosylated (protein)
chain: GALAQYEDDPHWWFHYLRSQQSTSSDPSDPSPSETSEPSPSGVDEGPASTSGSPSPPDPRDCPQECDCPPNFPTAMYCDNRNLKYLPFVPSRMKYVYFQNNQITSIQEGVFDNATGLLWIALHGNQITSDKVGRKVFSKLRHLERLYLDHNNLTRMPGPLPRSLRELHLDHNQISRVPNNALEGLENLTALYLQHNEIQEVGSSMRGLRSLILLDLSYNHLRKVPDGLPSALEQLYMEHNNVYTVPDSYFRGAPKLLYVRLSHNSLTNNGLASNTFNSSSLLELDLSYNQLQKIPPVNTNLENLYLQGNRINEFSISSFCTVVDVVNFSKLQVLRLDGNEIKRSAMPADAPLCLRLASLIEI
modifications: N-linked glycans at Asn127, Asn166, Asn201, Asn291; left off: His-tag, N-terminal, cleaved
notes: human fibromodulin residues 19–376 of UniProt Q06828, ten N-terminal tyrosines mutated to serine, natively glycosylated
B2: chondroadherin: human chondroadherin, residues 23–359 of Uniprot O15335, untagged; vector-derived APLA sequence at the N-terminus (protein)
chain: APLACPQNCHCHSDLQHVICDKVGLQKIPKVSEKTKLLNLQRNNFPVLAANSFRAMPNLVSLHLQHCQIREVAAGAFRGLKQLIYLYLSHNDIRVLRAGAFDDLTELTYLYLDHNKVTELPRGLLSPLVNLFILQLNNNKIRELRAGAFQGAKDLRWLYLSENALSSLQPGALDDVENLAKFHVDRNQLSSYPSAALSKLRVVEELKLSHNPLKSIPDNAFQSFGRYLETLWLDNTNLEKFSDGAFLGVTTLKHVHLENNRLNQLPSNFPFDSLETLALTNNPWKCTCQLRGLRRWLEAKASRPDATCASPAKFKGQHIRDTDAFRSCKFPTKRSKKAGRH
B3: biglycan: class I SLRP core protein (protein, UniProt P21810 38-368, looked up)
Biglycan: DEEASGADTSGVLDPDSVTPTYSAMCPFGCHCHLRVVQCSDLGLKSVPKEISPDTTLLDLQNNDISELRKDDFKGLQHLYALVLVNNKISKIHEKAFSPLRKLQKLYISKNHLVEIPPNLPSSLVELRIHDNRIRKVPKGVFSGLRNMNCIEMGGNPLENSGFEPGAFDGLKLNYLRISEAKLTGIPKDLPETLNELHLDHNKIQAIELEDLLRYSKLYRLGLGHNQIRMIENGSLSFLPTLRELHLDNNKLARVPSGLPDLKLLQVVYLHSNNITKVGVNDFCPMGFGVKRAYYNGISLFNNPVPYWEVQPATFRCVTDRLAIQFGNYKK

Assays:
[1] = SEC-MALS, oligomeric state in solution; format: physicochemical; conditions: for oligomeric state in solution / experimentally determined mass: SEC-MALS; for oligomeric state in solution: 10 mg/ml injected, pH 7.5, peak protein concentration estimated at least 50 μM; for experimentally determined mass: Superdex 75, 10 mg/ml injected, 150 mM NaCl, 20 mM HEPES (pH 7.5), 0.1 ml/min; for dissociation constant of dimer (if any): inferred from SEC-MALS, compared with decorin dimer 1.4 μM
Experimental: Fibromodulin and chondroadherin samples at a concentration of 10 mg/ml were injected onto a Superdex 75 10/30 column (GE Healthcare) connected to a 1260 Infinity HPLC (Agilent Technologies). The running buffer was 150 mM NaCl, 20 mM HEPES (pH 7.5) and the flow rate was 0.1 ml/min. Light scattering and refractive index changes were monitored using in-line Wyatt Mini Dawn and Optilab T-rEX detectors (Wyatt Technology Corp). The data were analysed with the Wyatt ASTRA V software. Each N-linked glycosylation site was assumed to add 2 kDa of molecular mass. The extinction coefficients for fibromodulin and chondroadherin were calculated as 32,930 and 40,715 M^− 1 cm^− 1, respectively.

[2] = Affinity of untagged protein for Ni^2 + resin
Experimental: For purification of His-tagged fibromodulin, the filtered serum-free cell culture supernatant was adjusted to a final concentration of 20 mM Na-HEPES (pH 7.5) and loaded onto a 5-ml HisTrap Excel column (GE Healthcare) using an Äkta Purifier (GE Healthcare). The column was washed with buffer A (20 mM HEPES pH 7.5, 150 mM NaCl, 2 mM CaCl2) and the protein was eluted with 500 mM imidazole in buffer A. To remove the His-tag, fractions containing protein were incubated overnight with recombinant His-tagged TEV protease (made in E. coli using an expression vector kindly provided by Stephen Curry) while dialysing against buffer A. The reaction mixture was passed over a 5-ml HisTrap Excel column, and the flow-through containing the untagged fibromodulin protein was collected. After concentration using a Vivaspin centrifugal device (Sartorius), the fibromodulin protein was further purified by size exclusion chromatography on a Superdex 75 10/300 GL column (GE Healthcare) using buffer A as the running buffer. The purified protein ran as a single broad band of ~ 55 kDa on reducing SDS-PAGE (calculated: 41.5 kDa + 4 N-linked glycans).
The natural affinity of chondroadherin for Ni^2 + affinity resin was used to purify the untagged protein. […]

[3] = tested on: Collagen Toolkits II and III; conditions: Toolkit peptides from collagens II and III; ref [9]; cited from earlier work
From the text: (§1) Chondroadherin knockout mice present with ...

[4] = tested on: Lysyl oxidase; conditions: very N-terminus of fibromodulin; ref [9]; cited from earlier work
From the text: Previous studies with bacterially expressed fibromodulin fragments identified LRRs 5-7 and 11 (VI-VIII and XII in the numbering scheme used here) as important for collagen binding, [25]. Thus, the collagen binding site appears to be located in the C-terminal half of fibromodulin, potentially leaving the N-terminal half containing most of the surface-exposed aromatic residues free to interact with another partner.

[5] = tested on: collagen III; experiment: Chondroadherin binding to collagen III; conditions: Collagen Toolkit III solid-phase assay
Experimental: (§2) Recombinant purified chondroadherin was biotinylated using biotin EZ-link reagent (ThermoFisher) and dialysed into TBS to remove excess biotinylation reagent. Collagen peptides from Toolkit II and III [57], [58] were coated on a 96-well plate at 10 μg/ml in 20 mM acetic acid overnight at 4 °C. […] The following incubations were conducted at room temperature. Plates were rinsed three times with TBS and blocked for 1 h with 5% BSA in TBS. After rinsing with TBS, plates were incubated with biotinylated chondroadherin at 10 μg/ml in TBST (TBS with 0.1% Tween-20) with 0.1% BSA for 1 h. Plates were washed three times with TBST, and incubated with streptavidin-HRP (Millipore) diluted 1:20,000 in TBST with 0.1% BSA for 1 h. Plates were washed five times with TBST, and the binding was detected with TMB substrate (ThermoFisher) and stopped with 2 M sulphuric acid. The absorbance was read at 450 nm.

[6] = tested on: collagen II; experiment: Chondroadherin binding to collagen II mapped with Toolkit II; conditions: mapped with Toolkit II solid-phase assay; six of the nine triplets in II-26
Experimental: as §2

[7] = tested on: collagen I; conditions: ref [11]; cited from earlier work
From the text: as §1

[8] = tested on: integrin α2β1; conditions: cited from earlier work
From the text: One of the more distant homologues of fibromodulin is chondroadherin, a class IV SLRP found in cartilage and bone. Chondroadherin-deficient mice have thinner cortical bones and longer growth plate proliferation zones, as well as mechanically softer knee surface cartilage. […] These positions map to the α-helix in the C-terminal cap of chondroadherin. Glu316, the last residue of the α-helix, appears to be critical for integrin binding and may interact with the metal ion-dependent adhesion site of the integrin α2 I domain [45], [46].

[9] = C-terminal 14 residues; ref [15]; cited from earlier work
From the text: The collagen-binding site on chondroadherin has not been mapped. […] These positions map to the α-helix in the C-terminal cap of chondroadherin. Glu316, the last residue of the α-helix, appears to be critical for integrin binding and may interact with the metal ion-dependent adhesion site of the integrin α2 I domain [45], [46].

[10] = tested on: collagen II; conditions: ref [13]; cited from earlier work
From the text: One of the more distant homologues of fibromodulin is chondroadherin, a class IV SLRP found in cartilage and bone. Chondroadherin-deficient mice have thinner cortical bones and longer growth plate proliferation zones, as well as mechanically softer knee surface cartilage.

[11] = not SEC-MALS of this work; ref [26], [32], [33]; cited from earlier work
From the text: Fig. 3 Concave face interactions in SLRP crystal structures. For each structure, two orthogonal views are shown. […] The experimentally determined mass of fibromodulin was 56.7 kDa (calculated: 41.5 kDa + 4 N-linked glycans) and that of chondroadherin was 39.6 kDa (calculated: 38.6 kDa). In comparison, using the same SEC-MALS setup, we previously determined an experimental mass of 83.5 kDa for the glycosylated decorin core protein (calculated: 36.2 kDa + 4 N-linked glycans).

Row | Molecule | oligomeric state in solution [1] | experimentally determined mass [1] | dissociation constant of dimer (if any) [1] | affinity for Ni^2 + resin [2] | binding to Toolkit peptides [3] | binding to lysyl oxidase [4] | binding to collagen III [5] | binding to collagen II [6] | binding to collagen I [7] | integrin α2β1 binding ([8]; binding site in chondroadherin, ref [44]) | interaction with integrin α2β1 (cell-matrix interactions) ([8]; ref [14]) | heparan sulphate binding [9] | interaction with collagen II [10] | oligomeric state in solution (literature) [11]
1 | B1 | predominantly monomeric in solution; also recorded: neither fibromodulin nor chondroadherin forms a stable dimer in solution | 56.7 kDa | substantially higher than that of the decorin dimer | substantial affinity for Ni^2 + resin | bound several Toolkit peptides from both collagens II and III; also recorded: binds to KGHR-containing sites in Collagen Toolkits II and III | Lysyl oxidase has been shown to bind to the very N-terminus of fibromodulin |  |  |  |  |  |  |  | 
2 | B2 | predominantly monomeric in solution; also recorded: neither fibromodulin nor chondroadherin forms a stable dimer in solution; also recorded: at best, very weak | 39.6 kDa | substantially higher than that of the decorin dimer | substantial affinity for Ni^2 + resin |  |  | not at all to collagen III | binds to a unique sequence motif in collagen II | reported binding of chondroadherin to collagen I | residues 307–318 have been identified as a binding site for integrin α2β1 | mediates cell-matrix interactions through binding to integrin α2β1 | bind heparan sulphate | interacts with collagen II | 
3 | B3 |  |  |  |  |  |  |  |  |  |  |  |  |  | form stable dimers in solution

Reference: article PMC5618690, “Structural and functional analysis of two small leucine-rich repeat proteoglycans, fibromodulin and chondroadherin” (Matrix Biology, 2017)
